Literature values, collected in US8633160B2, “Small molecule inhibitors of PDZ interactions” (Nono Inc., priority 2005, dated 2014).

Assays:
N-type calcium channel = N-type calcium channel (Homo sapiens, UniProt Q00975); details: data of U.S. Provisional Application No. 60/904,507; cited from earlier work
[1] = test system: middle cerebral artery occlusion (MCAO) model of stroke; details: rat, previously tested; cited from earlier work

Chain of N-type calcium channel (Q00975 whole entry): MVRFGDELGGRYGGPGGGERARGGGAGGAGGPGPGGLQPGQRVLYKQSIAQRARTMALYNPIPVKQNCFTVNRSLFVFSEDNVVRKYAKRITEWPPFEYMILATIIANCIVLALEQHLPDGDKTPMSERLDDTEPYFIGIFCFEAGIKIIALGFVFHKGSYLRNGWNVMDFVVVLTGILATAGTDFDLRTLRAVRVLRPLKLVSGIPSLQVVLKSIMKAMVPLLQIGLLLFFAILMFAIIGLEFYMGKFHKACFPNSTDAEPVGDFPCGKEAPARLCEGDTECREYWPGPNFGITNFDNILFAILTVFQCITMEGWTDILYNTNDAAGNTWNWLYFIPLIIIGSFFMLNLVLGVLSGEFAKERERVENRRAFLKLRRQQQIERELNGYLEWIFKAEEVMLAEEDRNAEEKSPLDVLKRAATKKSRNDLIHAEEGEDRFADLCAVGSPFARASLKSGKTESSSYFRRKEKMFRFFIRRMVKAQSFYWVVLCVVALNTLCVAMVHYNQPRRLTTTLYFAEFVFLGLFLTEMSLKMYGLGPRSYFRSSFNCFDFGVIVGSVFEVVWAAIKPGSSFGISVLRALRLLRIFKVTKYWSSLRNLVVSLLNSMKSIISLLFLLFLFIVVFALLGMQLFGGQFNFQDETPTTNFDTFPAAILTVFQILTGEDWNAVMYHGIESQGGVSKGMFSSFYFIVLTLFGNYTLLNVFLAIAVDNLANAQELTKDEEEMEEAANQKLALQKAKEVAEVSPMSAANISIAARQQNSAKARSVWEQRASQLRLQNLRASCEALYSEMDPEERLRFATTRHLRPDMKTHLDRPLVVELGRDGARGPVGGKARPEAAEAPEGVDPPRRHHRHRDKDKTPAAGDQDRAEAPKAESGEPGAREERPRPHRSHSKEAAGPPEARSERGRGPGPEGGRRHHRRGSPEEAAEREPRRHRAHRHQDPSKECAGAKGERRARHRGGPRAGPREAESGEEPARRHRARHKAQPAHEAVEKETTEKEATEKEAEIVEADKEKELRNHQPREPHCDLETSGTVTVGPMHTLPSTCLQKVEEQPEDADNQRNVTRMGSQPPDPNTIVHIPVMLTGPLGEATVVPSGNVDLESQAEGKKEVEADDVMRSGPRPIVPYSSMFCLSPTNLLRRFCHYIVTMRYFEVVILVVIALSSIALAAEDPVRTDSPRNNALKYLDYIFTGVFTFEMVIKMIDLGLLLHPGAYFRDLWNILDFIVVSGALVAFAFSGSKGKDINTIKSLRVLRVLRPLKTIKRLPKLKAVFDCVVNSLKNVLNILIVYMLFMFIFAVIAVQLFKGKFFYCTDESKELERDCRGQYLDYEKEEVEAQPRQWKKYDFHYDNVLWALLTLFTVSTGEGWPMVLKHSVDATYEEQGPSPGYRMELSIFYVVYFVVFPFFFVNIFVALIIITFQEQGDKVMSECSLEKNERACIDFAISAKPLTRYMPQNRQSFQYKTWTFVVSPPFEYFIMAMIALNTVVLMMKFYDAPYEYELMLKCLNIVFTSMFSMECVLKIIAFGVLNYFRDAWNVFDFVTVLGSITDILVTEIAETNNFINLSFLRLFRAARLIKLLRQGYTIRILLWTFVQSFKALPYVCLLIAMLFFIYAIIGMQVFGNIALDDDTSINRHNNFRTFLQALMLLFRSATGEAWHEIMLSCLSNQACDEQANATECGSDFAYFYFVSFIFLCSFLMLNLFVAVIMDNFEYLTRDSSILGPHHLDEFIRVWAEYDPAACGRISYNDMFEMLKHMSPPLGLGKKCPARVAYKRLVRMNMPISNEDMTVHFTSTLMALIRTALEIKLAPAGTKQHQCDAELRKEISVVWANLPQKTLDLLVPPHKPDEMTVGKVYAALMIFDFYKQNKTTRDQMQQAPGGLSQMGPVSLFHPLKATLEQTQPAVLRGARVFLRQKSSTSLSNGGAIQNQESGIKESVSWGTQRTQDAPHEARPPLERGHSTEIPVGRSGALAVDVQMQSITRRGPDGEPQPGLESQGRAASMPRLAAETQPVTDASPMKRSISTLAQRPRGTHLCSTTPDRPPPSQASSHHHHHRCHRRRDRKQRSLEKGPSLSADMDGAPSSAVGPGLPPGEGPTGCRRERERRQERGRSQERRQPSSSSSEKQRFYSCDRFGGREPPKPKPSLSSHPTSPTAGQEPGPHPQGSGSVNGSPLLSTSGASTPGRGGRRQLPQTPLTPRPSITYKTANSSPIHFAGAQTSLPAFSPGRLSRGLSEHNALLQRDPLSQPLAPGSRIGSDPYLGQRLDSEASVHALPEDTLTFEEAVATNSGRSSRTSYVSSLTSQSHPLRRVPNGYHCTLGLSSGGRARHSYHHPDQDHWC

Row | Sequence | Inhibition of the N-type calcium channel (N-type calcium channel) | Neuroprotection (infarct size) [1]
1 | YGRKKRRQRRR [Tat] | sufficient to induce the observed inhibition | 
2 | YGRKKRRQRRRKLSSIESDV [Tat-NR2B9c, known neuroprotective peptide] |  | neuroprotective as seen by a reduced infarct size
